{"source": "patent US20060168698", "molecular_target": "T1, SOS1 (Salt Overly Sensitive 1, plasma membrane Na+/H+ antiporter), Q9LKW9", "T1 chain": "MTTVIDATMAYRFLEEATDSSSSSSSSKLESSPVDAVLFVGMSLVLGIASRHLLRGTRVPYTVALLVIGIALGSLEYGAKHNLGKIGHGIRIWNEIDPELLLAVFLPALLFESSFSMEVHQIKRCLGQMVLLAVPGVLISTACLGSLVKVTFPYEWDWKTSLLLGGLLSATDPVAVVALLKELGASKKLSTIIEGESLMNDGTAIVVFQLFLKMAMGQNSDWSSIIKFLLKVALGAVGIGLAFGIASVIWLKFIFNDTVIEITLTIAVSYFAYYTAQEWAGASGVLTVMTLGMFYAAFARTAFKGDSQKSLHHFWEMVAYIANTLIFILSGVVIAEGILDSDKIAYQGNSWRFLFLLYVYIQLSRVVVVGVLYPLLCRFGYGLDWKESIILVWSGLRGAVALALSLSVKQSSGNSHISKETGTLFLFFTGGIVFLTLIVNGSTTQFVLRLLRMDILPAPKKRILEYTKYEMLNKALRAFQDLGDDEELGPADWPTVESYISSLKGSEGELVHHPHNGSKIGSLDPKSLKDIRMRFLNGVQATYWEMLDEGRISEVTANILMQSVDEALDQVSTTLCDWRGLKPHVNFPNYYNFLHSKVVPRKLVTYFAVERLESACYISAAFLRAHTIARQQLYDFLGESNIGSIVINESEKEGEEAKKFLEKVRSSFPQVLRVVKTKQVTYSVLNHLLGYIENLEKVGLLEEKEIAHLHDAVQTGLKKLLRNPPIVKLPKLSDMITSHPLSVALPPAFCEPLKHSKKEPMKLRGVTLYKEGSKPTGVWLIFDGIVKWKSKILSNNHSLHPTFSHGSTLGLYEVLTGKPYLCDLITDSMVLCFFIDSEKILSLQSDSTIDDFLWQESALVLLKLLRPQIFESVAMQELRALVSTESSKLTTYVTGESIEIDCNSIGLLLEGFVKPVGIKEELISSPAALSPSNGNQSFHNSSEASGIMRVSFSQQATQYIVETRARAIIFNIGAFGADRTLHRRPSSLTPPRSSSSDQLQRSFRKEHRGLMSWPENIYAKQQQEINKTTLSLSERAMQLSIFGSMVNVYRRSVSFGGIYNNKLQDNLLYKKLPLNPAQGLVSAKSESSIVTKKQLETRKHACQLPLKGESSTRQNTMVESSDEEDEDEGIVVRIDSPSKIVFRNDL", "data": [{"protein": "T/DSOS2 (SOS2 protein kinase with the Thr168-to-Asp change in the activation loop) (protein) MTKKMRRVGKYEVGRTIGEGTFAKVKFARNTDTGDNVAIKIMAKSTILKNRMVDQIKREISIMKIVRHPNIVRLYEVLASPSKIYIVLEFVTGGELFDRIVHKGRLEESESRKYFQQLVDAVAHCHCKGVYHRDLKPENLLLDTNGNLKVSDFGLSALPQEGVELLRDTCGTPNYVAPEVLSGQGYDGSAADIWSCGVILFVILAGYLPFSETDLPGLYRKINAAEFSCPPWFSAEVKFLIHRILDPNPKTRIQIQGIKKDPWFRLNYVPIRAREEEEVNLDDIRAVFDGIEGSYVAENVERNDEGPLMMNAFEMITLSQGLNLSALFDRRQDFVKRQTRFVSRREPSEIIANIEAVANSMGFKSHTRNFKTRLEGLSSIKAGQLAVVIEIYEVAPSLFMVDVRKAAGETLEYHKFYKKLCSKLENIIWRATEGIPKSEILRTITF", "values": [{"measurement": "plasma membrane Na+/H+-exchange activity, maximum stimulation relative to activity without added protein (100 mM NaCl)", "result": "A maximum stimulation of activity of 40% relative to activity without added protein"}]}]}
